In the nanobody polyreactivity screen of Harvey et al. (2022):

Test: yeast display, Sf9 membrane polyspecificity reagent, FACS + sequencing; frameworks hold sequencing errors
How it was run: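 Nanobodies from a synthetic yeast display library (Saccharomyces cerevisiae BJ5465), induced 36–48 hours with galactose, were stained 1 hour at 4 °C with 10% biotinylated, detergent-solubilized Sf9 membrane reagent, enriched on streptavidin microbeads, then FACS-sorted. Anti-HA (expression) and streptavidin (reagent binding) fluorescence set low and high (top ~1%) gates. Polyreactivity labels come from the gate of origin. Genes were colony-PCR amplified, MiSeq 2 × 250 sequenced and filtered by CDR length.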

Row | Sequence | polyreactivity (PSR sort gate)
1 | QVQLVESGGGLVQAGGSLRLSCAASGRTFSYYAMGWYRQAHGKERELVAAITSSGGRTTYADSVKGRFTISRDNAKNTVYLQMNSLKPEDTAVYYCNVVRWTLKYGYWGQGTQVTVSS | high polyreactivity
2 | QVQLVESGGGLVQAGGSLRLSCAASGRTFSYYAMGWYRQAPGKEREFVAAISSTGTSTYYADSVKGRFTISRDNAKNTVYLQMNSLKPEDTAVYYCNARVATYRLHSKFYYWGQGTQVTVSS | high polyreactivity
3 | QVQLVESGGGLVQAGGSLRLSCAASGRTFSYYAMGWYRQAPGKERELVAAISYSGGRTYYADSVKGRFTISRDNAKNTVYIQMNSLKPEDTAVYYCAPVKSRPQYGYGYWVQGTQVTVSS | high polyreactivity
4 | QVQLVESGGGLVQAGGSLRLSCAASGRTFSYYAMGWYRQAPGKERELVAAITSGGGRTYYADSVKGRFTISRDNAKNTVYLQMNSLKPEDTAVYYCNALSTLYNGYDYWGQGTQVTVSS | high polyreactivity
5 | QVQLVESGGGLVQAGGSLRLSCAASGRTFSYYAMRWYRQAPGKERELVAAITSGGSTYYADSVKGRFTISRDNAKNTVYLQMNSLKPEDTAVYYCAKYQSYGPVPFGRGYGHYYWGQGTQVTVSS | high polyreactivity
6 | QVQLVESGGGLVQAGGSLRLSCAASGRTFSYYARGWYRQAPGKEREFVAAISSSGGSTNYADSVKGRFTISRDNAKNTVYLQMNSLKPEDTAVYYCNAGSGYTGVYLWYYWRYDYWGQGTQVTVSS | low polyreactivity
7 | QVQLVESGGGLVQAGGSLRLSCAASGRTFSYYTMGWYRQAPGKERELVARISNRGTNTYYADSVKGRFTISRDNAKNTVYLQMNSLKPEDTAVYYCAATQPYWWAYRYDYWGQGTQVTVSS | low polyreactivity
8 | QVQLVESGGGLVQAGGSLRLSCAASGRTFSYYTMGWYRQATGKERELVARISNRGTNTYYADSVKGRFTISRDNAKITVYLPMNSLKQEDTAVYYCDKFYYTSIVGYDSWGQGTQVTVSS | low polyreactivity
9 | QVQLVESGGGLVQAGGSLRLSCAASGRTFTAYAMGWYRQAPGKERELVARITSVDSTNYADSVKGRFTISRDNAKNTVYLHMYSLKPDDTAVYYCNATFGYPFVDYDDYWGQVTQVTVSS | low polyreactivity
10 | QVQLVESGGGLVQAGGSLRLSCAASGRTFTEYAMGWYRQAPGKERELGAGIDSGSGSTYYADSVKGRFTISRDYAKNTVYLQMNSLHPEDTAVYYCAARDVWSPYDTDVDYWGQGTQVTVSS | low polyreactivity
11 | QVQLVESGGGLVQAGGSLRLSCAASGRTFTFNVMGWYRQAPGKERELVAVITGGDDTYYADSVKGRFTISRDNAKNTVYFQMNSLKPVDTAVYYCNAAAGATTLVRPYVEFDYWGQGTQVNVSS | low polyreactivity
12 | QVQLVESGGGLVQAGGSLRLSCAASGRTFTFYAMGWYRQAPGKERELVAAISTRGGRTYYADSVKGRFTISRDNAKNTVYLQMNSLKPEDTAVYYCAARARRRYYYWGQGTQVTVSS | high polyreactivity
13 | QVQLVESGGGLVQAGGSLRLSCAASGRTFTFYTMGWYRQAPGKERELVARITGGGSTYYADSVKGRFTISRDNAKNTVYLQMNSLKPEDTAVYYCAAASGTKRLYRGTRGDYWGQGTQVTVSS | low polyreactivity
14 | QVQLVESGGGLVQAGGSLRLSCAASGRTFTGNAMGWYRQAPGKERELVAAISTSGTRTTYADSVKGRFTISRDNAKNPVYLQMTSLKPEDTAVYYCAALRKCLYRTYTYDYWGQGTQVTVSS | high polyreactivity
15 | QVQLVESGGGLVQAGGSLRLSCAASGRTFTGYVMGWYRQAPGKDRELVAGSSRRGGRTYYADSVKGRYTISRDNAKNTVYLQMNSLKPEDTEVYYCAAAVTSSDPYDYWGQGTQVTVSS | high polyreactivity
16 | QVQLVESGGGLVQAGGSLRLSCAASGRTFTHNTMGWYRQAPGKERELVAAISRSGASTYYADSVKGRFTISRDNAKNTVYLQMNSLKPEDTAVYYCNAYSRPHFGYVVGTKSRHGYWGQGTQVTVSS | high polyreactivity
17 | QVQLVESGGGLVQAGGSLRLSCAASGRTFTHNVMGWYRQAPGKERELVAGISSTGGSTYYADSVKGRFTISRDNAKNTVYLQMNSLKPEDTAVYYCAVIGYHYSAISPPSQTRQGYDYWGQGTQVTLSS | low polyreactivity
18 | QVQLVESGGGLVQAGGSLRLSCAASGRTFTHYAMGWYRQAPGKERELVAAISGRGGNTYYADSVKGRFTISRDNAKNTVYLQMNSLKPEDTAVYYCNTAYVAKGYGYWGQGTQVTVSS | high polyreactivity
19 | QVQLVESGGGLVQAGGSLRLSCAASGRTFTHYAMGWYRQAPGKERELVASISDGGRTHYADSVKGRFTISRDNAKNTVYLQMNSLKPEDTAVYYCATDRYPTRRYDYWGQGTQVTVSS | low polyreactivity
20 | QVQLVESGGGLVQAGGSLRLSCAASGRTFTIYAMGWYRQAPGKERELVAAISSSSGSTYYADSVKGRFTISRDNAKNTVYLQMNSLKPEDTAVYYCAARTTYRSSKRYGYWGQGTQVTVSS | high polyreactivity
21 | QVQLVESGGGLVQAGGSLRLSCAASGRTFTKYAKGWYRQAPGKERELVAAISNSGGSTFYADSVKGRFTISRDNAKNTVYLQMNSLKPEDTAVYYCAVDLGDTQYVPFDYWGQGTQVTVSS | low polyreactivity
22 | QVQLVESGGGLVQAGGSLRLSCAASGRTFTPYTMGWYRQAPGKEREFVAAITFRGGSTYYADSVKGRFTLSRDNAKNTVYLQMNSLKPEDTAVYYCNARGHGGWGTSMYYWGQGTQVTVSS | high polyreactivity
23 | QVQLVESGGGLVQAGGSLRLSCAASGRTFTRYAMGWSRQAPGKERELVAAITSTGSTYYADSVKGRFTISRDNAKNTVYLQMNSLKPEDTAVYYCNKVGIRYYYGYDYWGQGTQVTVSS | high polyreactivity
24 | QVQLVESGGGLVQAGGSLRLSCAASGRTFTRYSMGWYRQAPGKERELVATINSSGDRTYYADSVKGRFTISRDNAKNTVYLQMNSLKPEDTAVYYCAKRWSPYLYGYWGKGTQVTVSS | high polyreactivity
25 | QVQLVESGGGLVQAGGSLRLSCAASGRTFTRYVMGWYRQAPAKEREVVAAISSSGGTYYADSVKGRFTISRDNAKNTVYLQMNSLKPEDTAVYYCAVGSKLSRSYGYYYWGQGTQVTVSS | high polyreactivity
26 | QVQLVESGGGLVQAGGSLRLSCAASGRTFTSNAMRWYRQEPGNERELVAAISNRGTRTYYADSVKGRFTISRDNAKNTVYLQMHILKPEETAVYYCAASERDQRFKHYYWGLGTQVTVSS | high polyreactivity
27 | QVQLVESGGGLVQAGGSLRLSCAASGRTFTSYGMGWYRPEPGKERELVAAITRSTGGTYYADSVKGRFTISRDHAKNTVYLQMNSLKPEDTAVYYCNTGPLYSPFDYWGQGTQVTVSS | low polyreactivity
28 | QVQLVESGGGLVQAGGSLRLSCAASGRTFTTYAMGWYRQSPGKERELVAAISGSGGSTYYADSVKGRFTISRDNAKNTVYLQMNSLKPEDTAVYYCATAYYYHGGYYYPYDDYWGQGTQVTVSS | low polyreactivity
29 | QVQLVESGGGLVQAGGSLRLSCAASGRTFTVNAMGWSRQAPGKERELVAAISTSTGRTYYADSVKGRFTISRDNAKNTVYLQMNSLKPEDTAVYYCAAQSPYRGYYYTYYLYDYWGQGTQVTVSS | high polyreactivity
30 | QVQLVESGGGLVQAGGSLRLSCAASGRTFTVNPMGWYRQAPGKERELVAAITSGGTTKYADSVKGRFTISRDNAKNTVYLQMNSLKPEDTAVYYCAARVYFPVQYPWFYFEYGYWGQGTQVTVSS | high polyreactivity
